According to paper PMC10881392:

How the values were obtained:
[1] = biological target: HIV-1 capsid (CA) hexamer CA (Human immunodeficiency virus 1) (UniProt O93182); details: cited from earlier work
[2] = biological target: HIV-1 capsid (CA) unassembled CA (Human immunodeficiency virus 1) (UniProt O93182); details: cited from earlier work
[3] = biological target: HIV-1 capsid (CA) CA (Human immunodeficiency virus 1) (UniProt O93182); details: cited from earlier work
[4] = biological target: unstructured FG domain of Nup98 (residues 1-499), His-tagged, as phase-separated condensates (human) (UniProt P52948)
GFP-Nup62 (full-length) = GFP-Nup62 (full-length) (UniProt P37198); test: FFS; details: n = 10 scans; parent: est. 1.0; read off a plot
[5] = biological target: GFP-Nup214 (1210-2090), FG-repeat domain (UniProt P35658); test: FFS; details: n = 15 scans; parent: est. 1.0; read off a plot
CypA, GFP fusion = CypA, GFP fusion (UniProt P62937); test: FFS; details: parent: est. 1.0, read off a plot
GFP-Nup42 (full-length) = GFP-Nup42 (full-length) (UniProt O15504); test: FFS; details: n = 10 scans; parent: est. 1.0; read off a plot
[6] = biological target: GFP-Nup98 (1-499), FG-repeat domain (UniProt P52948); test: FFS; details: n = 10 scans; parent: est. 1.0; read off a plot
[7] = biological target: GFP-Pom121 (266-1249), transmembrane domain truncated (UniProt Q96HA1); test: FFS; details: n = 10 scans; parent: est. 1.0; read off a plot
[8] = biological target: CPSF6 (313-327) peptide, Q16630-2; test: FFS; details: parent: est. 1.0, read off a plot
CPSF6 (313-327) peptide, Q16630-2, sequence (Q16630 whole entry, looked up, tested part not stated): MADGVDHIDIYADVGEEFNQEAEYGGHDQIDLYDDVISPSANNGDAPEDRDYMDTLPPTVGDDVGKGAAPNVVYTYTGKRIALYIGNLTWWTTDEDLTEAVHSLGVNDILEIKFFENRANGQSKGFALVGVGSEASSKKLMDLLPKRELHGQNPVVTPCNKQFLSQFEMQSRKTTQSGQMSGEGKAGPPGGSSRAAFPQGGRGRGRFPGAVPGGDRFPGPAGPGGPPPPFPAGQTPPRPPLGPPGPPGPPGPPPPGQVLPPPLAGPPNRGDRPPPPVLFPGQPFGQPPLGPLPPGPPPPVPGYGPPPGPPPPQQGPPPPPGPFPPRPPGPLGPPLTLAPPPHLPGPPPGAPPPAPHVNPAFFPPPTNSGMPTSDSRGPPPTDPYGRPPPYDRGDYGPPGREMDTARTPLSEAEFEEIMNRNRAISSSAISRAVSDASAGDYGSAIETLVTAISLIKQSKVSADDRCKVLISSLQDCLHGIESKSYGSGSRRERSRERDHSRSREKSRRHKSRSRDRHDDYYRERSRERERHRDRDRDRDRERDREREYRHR

[9] = biological target: Nup153 (1407-1423) peptide (UniProt P49790); test: FFS; details: parent: est. 1.0, read off a plot
Nup153 (1407-1423) peptide, sequence (P49790 whole entry, looked up, tested part not stated): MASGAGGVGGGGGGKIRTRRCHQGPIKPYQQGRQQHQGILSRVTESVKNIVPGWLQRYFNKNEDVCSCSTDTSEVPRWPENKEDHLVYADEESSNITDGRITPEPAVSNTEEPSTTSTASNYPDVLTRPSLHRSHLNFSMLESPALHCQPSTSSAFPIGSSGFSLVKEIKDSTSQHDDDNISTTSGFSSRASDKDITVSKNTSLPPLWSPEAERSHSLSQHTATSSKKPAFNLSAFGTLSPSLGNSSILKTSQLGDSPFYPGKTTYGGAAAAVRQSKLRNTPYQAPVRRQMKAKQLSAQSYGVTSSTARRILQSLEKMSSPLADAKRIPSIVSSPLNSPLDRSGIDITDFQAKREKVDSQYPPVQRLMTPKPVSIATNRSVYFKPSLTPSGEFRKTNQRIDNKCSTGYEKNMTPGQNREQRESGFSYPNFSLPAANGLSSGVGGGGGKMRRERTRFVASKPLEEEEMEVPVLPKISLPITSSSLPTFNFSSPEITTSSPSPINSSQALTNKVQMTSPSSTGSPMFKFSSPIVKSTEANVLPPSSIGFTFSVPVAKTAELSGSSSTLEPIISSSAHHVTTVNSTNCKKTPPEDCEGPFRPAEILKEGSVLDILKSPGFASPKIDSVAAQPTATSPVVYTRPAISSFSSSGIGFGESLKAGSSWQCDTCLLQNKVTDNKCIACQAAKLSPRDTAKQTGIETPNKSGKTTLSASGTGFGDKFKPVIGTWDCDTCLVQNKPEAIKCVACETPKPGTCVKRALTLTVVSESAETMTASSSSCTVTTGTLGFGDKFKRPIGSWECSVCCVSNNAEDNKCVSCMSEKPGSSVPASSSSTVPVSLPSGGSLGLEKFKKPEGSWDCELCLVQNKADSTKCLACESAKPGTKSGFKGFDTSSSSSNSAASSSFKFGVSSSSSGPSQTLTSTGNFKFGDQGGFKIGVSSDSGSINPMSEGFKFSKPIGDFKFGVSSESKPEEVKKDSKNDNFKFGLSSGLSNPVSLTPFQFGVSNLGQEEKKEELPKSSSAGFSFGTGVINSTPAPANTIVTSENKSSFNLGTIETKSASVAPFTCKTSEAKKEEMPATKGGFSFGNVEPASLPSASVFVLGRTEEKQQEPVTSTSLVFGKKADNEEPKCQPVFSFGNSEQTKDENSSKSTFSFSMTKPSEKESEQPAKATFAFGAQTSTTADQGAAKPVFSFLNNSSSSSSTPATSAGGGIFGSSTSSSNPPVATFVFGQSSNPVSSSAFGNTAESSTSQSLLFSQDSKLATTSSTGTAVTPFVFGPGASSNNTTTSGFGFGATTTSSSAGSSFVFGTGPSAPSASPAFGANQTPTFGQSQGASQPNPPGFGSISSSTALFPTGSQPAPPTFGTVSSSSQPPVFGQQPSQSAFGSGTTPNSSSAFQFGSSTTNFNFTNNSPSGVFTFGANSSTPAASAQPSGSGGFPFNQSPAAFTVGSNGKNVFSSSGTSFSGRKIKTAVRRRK

GFP-Nup58 (full-length) = GFP-Nup58 (full-length) (UniProt Q9BVL2); test: FFS; details: n = 15 scans; parent: est. 1.0; read off a plot
[10] = biological target: Nup98 fragment 118–345 (13 FGs); test: FFS; details: n = 10 scans; parent: est. 1.1; read off a plot
[11] = biological target: Nup98 fragment 1–119 (13 FGs); test: FFS; details: n = 10 scans; parent: est. 1.1; read off a plot
[12] = biological target: Nup98 fragment 346–499 (13 FGs); test: FFS; details: n = 10 scans; parent: est. 2.4; read off a plot

Substance | ratio to parent (GFP-Nup62 (full-length)) | ratio to parent [5] | ratio to parent (CypA, GFP fusion; n = 10 scans) | ratio to parent (GFP-Nup42 (full-length)) | ratio to parent [6] | ratio to parent [7] | ratio to parent ([8]; n = 10 scans) | ratio to parent ([9]; n = 10 scans) | also measured
CPSF6 313-327 (from UniProt Q16630) | – | – | – | – | – | – | – | – | Kd [1]: 50 µM; Kd [2]: 700 µM
HIV-1 capsid (CA) CA (from UniProt O93182) | – | – | – | – | – | – | – | – | Kd [3]: 40 µM
capsid-like particles (CLPs; CA A204C cross-linked assemblies labelled with Alexa Fluor 568), wild-type (complex) | – | – | – | – | – | – | – | – | median penetration depth of unlabelled CLPs into Nup98 condensates, cryo-ET [4]: 65 nm
capsid-like particles (CLPs; CA A204C cross-linked assemblies labelled with Alexa Fluor 568), wild-type A77V | 1.7 | 1.4 | 1.6 | 1.2 | 1.4 | 1.7 | 0.15 | 3.9 | –
capsid-like particles (CLPs; CA A204C cross-linked assemblies labelled with Alexa Fluor 568), wild-type N57D | -0.1 | 0.2 | 1.4 | 0.35 | 0.35 | -0.02 | 0.03 | – | ratio to parent (GFP-Nup58 (full-length)): -0.1; response [10]: 0.22; response [11]: 0.19; response [12]: 0.2; ratio to parent ([9]; n = 9 scans): 0.18
capsid-like particles (CLPs; CA A204C cross-linked assemblies labelled with Alexa Fluor 568), wild-type N74D | – | 1.8 | – | 1.8 | 1.7 | 1.9 | – | 1.4 | ratio to parent (CypA, GFP fusion; n = 8 scans): 1.3; ratio to parent ([8]; n = 8 scans): 0
